Test results published in patent US20130224235A1.

Assays:
Assay in all cases: indirect ELISA, protein coated, serum 1:100
[1] = target: 6xHis tagged N-terminal fusion protein (gp100 209-217(2M) peptide fused to PVA CP N-terminus) expres (Potato virus A (isolate B11)) (UniProt Q85197)
[2] = target: 6xHis tagged C-terminal fusion protein (gp100 209-217(2M) peptide fused to PVA CP C-terminus) expres (Potato virus A (isolate B11)) (UniProt Q85197)
[3] = target: 6xHis tagged wild type potato virus A coat protein (wtCP) expressed in E. coli from wtCP/pQE (Potato virus A (isolate B11)) (UniProt Q85197)

Measured: optical density at 450 nm

control mouse serum raised against PBS (antibody)
< 0.35 OD 450 nm: all assays above
